Blank lines part the entries; values can stand above or below the binder they belong to. Bridge positions count the residues as written; N and C are the ends. Square brackets hold non-standard residues; d marks the D form. Ends that are not written are not given here. Lys(Me3) = C[N+](C)(C)CCCC[C@H](N)C(=O)O
Tests used:
KDM7B PHD-finger [1] = biological target: T1, KDM7B PHD-finger (UniProt Q9UPP1-2 1-447); test: AlphaScreen or HTRF; proximity assay of His-tagged protein and biotinylated H3(1-21)K4me3; displacement by titrated unlabelled peptide; conditions: both partners purified
T1 sequence (Q9UPP1 37-483): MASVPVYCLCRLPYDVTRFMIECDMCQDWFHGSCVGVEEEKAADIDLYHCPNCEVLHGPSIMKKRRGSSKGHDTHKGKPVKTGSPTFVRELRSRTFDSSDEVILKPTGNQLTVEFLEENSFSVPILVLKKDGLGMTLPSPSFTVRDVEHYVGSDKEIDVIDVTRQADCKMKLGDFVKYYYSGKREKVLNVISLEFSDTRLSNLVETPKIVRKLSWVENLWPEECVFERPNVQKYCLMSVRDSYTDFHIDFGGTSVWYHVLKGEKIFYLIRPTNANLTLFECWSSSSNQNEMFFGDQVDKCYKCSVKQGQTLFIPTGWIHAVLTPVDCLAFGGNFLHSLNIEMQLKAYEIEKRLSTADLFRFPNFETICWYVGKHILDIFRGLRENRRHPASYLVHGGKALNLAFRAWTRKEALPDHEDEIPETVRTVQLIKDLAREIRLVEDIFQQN

KDM7B PHD-finger [2] = biological target: T1, KDM7B PHD-finger; test: BLI; association and dissociation of the cyclic peptide (2-fold serial dilution) on the protein; curve fittings with a 1:1 binding model; conditions: both partners purified
[3] = biological target: T2, KDM7B (PHF8, JHDM1F) dual domain (PHD-JmjC) (UniProt Q9UPP1-2 1-447); test: cell-based or functional assay
T2 sequence (Q9UPP1 37-483): as above

KDM7B PHD-finger [4] = biological target: T1, KDM7B PHD-finger; test: ITC; binding curves fitted with a 1:1 binding model; conditions: both partners purified
[5] = biological target: T2, KDM7B (PHF8, JHDM1F) dual domain …; test: as above; conditions: both partners purified
[6] = biological target: T2, KDM7B (PHF8, JHDM1F) dual domain …; test: BLI; association and dissociation of the cyclic peptide (2-fold serial dilution) on the protein; curve fittings with a 1:1 binding model; conditions: both partners purified
KDM7B PHD-finger [7] = biological target: T1, KDM7B PHD-finger; test: NMR titration; 1H-15N HSQC and 1H-NMR of isotopically labelled KDM7B PHD-finger, apo or with peptide; conditions: both partners purified
KDM7B PHD-finger [8] = biological target: T1, KDM7B PHD-finger; test: BLI + AlphaScreen or HTRF; SAR of OC9 variants on KDM7B PHD-finger by affinity (BLI) and displacement (AS) assays; the sentence does not tell which gave the result; conditions: both partners purified

B1: OC9 V10Kme3 (peptide)
chain: YYLTHPYPS[Lys(Me3)]FRTC
modifications: ends and bridges not checked
IC50 (KDM7B PHD-finger [1]): 316 nM
Kd (KDM7B PHD-finger [2]): 533 nM

B4: OC9 with trans-4-fluoroproline at P6 (peptide)
chain: YYLTH[trans‑4‑fluoroproline]YPSVFRTC
modifications: ends and bridges not checked
fold higher affinity against the cis-fluoro variant at P6 (KDM7B PHD-finger [8]): > 10 fold

Continued, values first:

IC50 of inhibition of KDM7B demethylation of H3(1–21)K4me3K9me2, MALDI-TOF MS based assay [3]: 1190 nM
IC50 of inhibition of KDM7B demethylation of H3(1–21)K9me2, MALDI-TOF MS based assay [3]: 510 nM
Kd (KDM7B PHD-finger [4]): 12 nM
Kd [5]: 11 nM
IC50 (KDM7B PHD-finger [1]): 32 nM
Kd (KDM7B PHD-finger [2]): 4 nM
dissociative half-life t1/2 (KDM7B PHD-finger [2]): 8.1 min
Kd [6]: 6 nM
dissociative half-life t1/2 [6]: 2.8 min
B2: OC9, de novo cyclic peptide from mRNA display (peptide)
chain: {CH2CO}-YYLTHPYPSVFRTC
modifications: thioether N-14

Kd (KDM7B PHD-finger [7]): 503000 ± 1000 nM
Kd (KDM7B PHD-finger [2]): > 10000 nM
B3: OC9 V10DV (peptide)
chain: YYLTHPYPS[dV]FRTC
modifications: ends and bridges not checked
